For this assay, the target named is Siglec-10 receptor overexpressed on CHO cells (UniProt Q96LC7).
Chain of UniProt Q96LC7 (Q96LC7 17-697): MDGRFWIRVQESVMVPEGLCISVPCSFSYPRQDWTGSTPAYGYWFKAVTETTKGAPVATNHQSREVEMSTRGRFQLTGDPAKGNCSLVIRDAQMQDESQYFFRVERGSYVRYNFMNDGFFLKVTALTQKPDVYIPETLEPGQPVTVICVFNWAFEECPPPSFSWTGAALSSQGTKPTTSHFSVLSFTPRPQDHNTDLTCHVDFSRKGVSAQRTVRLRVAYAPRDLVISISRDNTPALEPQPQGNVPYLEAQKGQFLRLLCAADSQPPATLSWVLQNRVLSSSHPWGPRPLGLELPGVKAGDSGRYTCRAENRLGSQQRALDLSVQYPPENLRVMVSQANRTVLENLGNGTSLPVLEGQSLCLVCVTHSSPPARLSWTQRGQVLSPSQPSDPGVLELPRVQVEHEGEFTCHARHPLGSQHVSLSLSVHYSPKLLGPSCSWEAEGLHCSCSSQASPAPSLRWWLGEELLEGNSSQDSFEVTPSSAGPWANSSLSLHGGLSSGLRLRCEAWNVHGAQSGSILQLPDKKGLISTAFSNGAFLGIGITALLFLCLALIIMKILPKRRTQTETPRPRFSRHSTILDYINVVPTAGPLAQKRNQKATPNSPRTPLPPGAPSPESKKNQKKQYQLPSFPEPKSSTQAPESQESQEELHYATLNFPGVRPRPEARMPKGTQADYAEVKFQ

“flagella (flagellin FlaA) of C. jejuni 11168H WT (from UniProt P56963 1-572) (natural protein)”: the IL-10 secretion (ELISA) of Siglec-10 transduced RAW264.7 cells against GFP control-transduced cells, infection with live 11168H WT, MOI 100, 24 hours was determined as 2 fold.

Source of the values: paper PMC4195440.
